The values below come from patent US20250134975A1, “CANCER VACCINE COMPRISING EPITOPE OF C-MET AND USE THEREOF” (KOREA UNIVERSITY RESEARCH AND BUSINESS FOUNDATION, priority 2022, published 2025).

“Also recorded” adds a separate entry of the source.

Test [1] concerns bone marrow monocytes (BMMs). Kind of test: Osteoclastogenesis analysis in bone marrow monocytes (TRAP staining). In kind it is cell-based, C3 (1)-Tag mice. Conditions: IFN-γ 50, 100 ng/mL with M-CSF 30 ng/mL and RANKL 100 ng/mL, vs positive control. The protocol:
Primary mouse bone marrow monocytes (BMMs) were isolated from the hind limb bones (two femurs and two tibiae) of 4 to 8 week-old C3 (1)-Tag mice. The mouse BMMs were flushed into a 15 ml tube via 8 ml of a serum-free 2 mM EDTA α-MEM medium. A Lymphocyte Separation Medium (LSM: MP Biomedicals: Catalog No. 50494) was dispensed into a new tube, 8 ml of the flushed BMMs were gently added thereon and centrifuged at 1600 rpm for 20 minutes at room temperature. The isolated BMMs were inoculated at 3×10^5 cells/well in a 48-well plate with 0.5 mL of a medium per well and incubated in α-MEM containing 10% FBS and 1% antibiotics.
BMMs in a negative control group were treated with M-CSF (30 ng/mL), BMMs in a positive control group were treated with M-CSF and RANKL (100 ng/mL), and BMMs in an experimental group were stimulated by treatment with M-CSF, RANKL, and IFN-γ (50, 100 ng/mL). On days 1, 3, 5, and 7 of culture, the medium was replaced, and each experimental group was treated with M-CSF, RANKL, and IFN-γ. After 9 days of culture, staining was performed using a TRAP staining kit (KT-008, KAMIYA biomedical company, Seattle, WA, USA) after fixing the cells with 10% formalin. For each well, TRAP-positive (TRAP^+) multinucleated cells (TRAP^+ MNC) were counted. All the experiments were independently repeated three times.

For test [2], the system named is M6-bone cells. Kind of test: Western blot of IFN-γ-treated cells. In kind it is cell-based, mouse. Conditions: 100 ng/ml IFN-γ, 18 hours. Here is the method:
M6 and M6-bone cells were stimulated with 100 ng/ml recombinant mouse IFN-γ and cultured in a medium containing 1% FBS for 18 hours. The cells were lysed in a buffered mixture of a PRO-PREP™ protein extraction solution (iNtRON Biotechnology, 17081) and a phosphatase inhibitor cocktail (Gen DEPOT, p3200-001). Protein concentration was measured using the Bradford assay (Bio-rad, 500-0006, Hercules, CA, USA). 30 μg of the protein was separated by SDS-polyacrylamide gel electrophoresis and transferred to a PVDF membrane (10600023), and then the membrane was blocked with Tris-buffered saline containing 0.05% Tween 20 and 5% non-fat milk powder for 1 hour. The PVDF membrane was incubated overnight at 4° C. with primary antibodies. HIF1α (NB100-105, Novusbio), c-MET, Akt (Cat #9272), and p-Akt (Cat #9271) antibodies were purchased from Cell Signaling Technology (Beverly, MA, USA), and β-actin (Cat #A5316) was purchased from Sigma (Saint Louis, MO, USA). Subsequently, a horseradish peroxidase-conjugated secondary antibody was cultured at room temperature for 1 hour. Immunoreactive bands were detected with a chemiluminescent reagent (Cat #RPN2106).

B1: IFN-γ: recombinant mouse IFN-γ, key cytokine of Th1 immunity (protein, UniProt P01580 23-155, looked up)
Interferon gamma: HGTVIESLESLNNYFNSSGIDVEEKSLFLDIWRNWQKDGDMKILQSQIISFYLRLFEVLKDNQAISNNISVIESHLITTFFSNSKAKKDAFMSIAKFEVNNPQVQRQAFNELIRVVHQLLPESSLRKRKRSRC
As for B1, the “M-CSF and RANKL-induced osteoclastogenesis” value in test [1] was “completely inhibited osteoclastogenesis; also recorded: inhibits”. Besides, in test [2], the “expression of c-MET and p-Akt (Western blot)” value is given as “decreased”.
